In US20190218308A1 (INNATE PHARMA, published 2019):

Key:
[1] = molecular target: T1, Human CD39-L2, also known as NTPDase6 or ENTPD6 (human, UniProt O75354 61-484, limits assumed); assay: ELISA on coated recombinant human CD39-L2 (panel huCD39 L2)
T1 construct: Recombinant protein coated in ELISA
T1 sequence: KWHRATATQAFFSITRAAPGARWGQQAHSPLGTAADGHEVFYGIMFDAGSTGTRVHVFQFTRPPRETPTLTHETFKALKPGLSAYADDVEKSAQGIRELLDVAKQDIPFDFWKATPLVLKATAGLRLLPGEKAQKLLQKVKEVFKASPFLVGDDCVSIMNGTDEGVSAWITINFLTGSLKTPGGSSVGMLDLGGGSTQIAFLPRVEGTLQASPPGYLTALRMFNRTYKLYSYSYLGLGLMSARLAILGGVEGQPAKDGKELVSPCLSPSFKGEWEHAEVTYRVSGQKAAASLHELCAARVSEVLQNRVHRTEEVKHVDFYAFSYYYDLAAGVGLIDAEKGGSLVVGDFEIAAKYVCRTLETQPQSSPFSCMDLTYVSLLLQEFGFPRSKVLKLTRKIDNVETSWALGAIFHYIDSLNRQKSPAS
Protocol: Wells were washed in TBS Tween 20, and further saturated 2H at RT in TBS Blocking buffer. Dose range concentration of primary antibody was incubated in TBS blocking buffer for 2 h at RT. Wells were washed in TBS Tween 20. […] Optical density was measured on Enspire™ at OD=450.

[2] = molecular target: T2, CD39 mutant 19 (human, UniProt P49961 1-510); assay: flow cytometry, Hek-293T cells transfected with CD39 mutant 19 (panel M19); antibody concentration not shown
T2 construct: Expressed on Hek-293T cells; also called M19
T2 chain: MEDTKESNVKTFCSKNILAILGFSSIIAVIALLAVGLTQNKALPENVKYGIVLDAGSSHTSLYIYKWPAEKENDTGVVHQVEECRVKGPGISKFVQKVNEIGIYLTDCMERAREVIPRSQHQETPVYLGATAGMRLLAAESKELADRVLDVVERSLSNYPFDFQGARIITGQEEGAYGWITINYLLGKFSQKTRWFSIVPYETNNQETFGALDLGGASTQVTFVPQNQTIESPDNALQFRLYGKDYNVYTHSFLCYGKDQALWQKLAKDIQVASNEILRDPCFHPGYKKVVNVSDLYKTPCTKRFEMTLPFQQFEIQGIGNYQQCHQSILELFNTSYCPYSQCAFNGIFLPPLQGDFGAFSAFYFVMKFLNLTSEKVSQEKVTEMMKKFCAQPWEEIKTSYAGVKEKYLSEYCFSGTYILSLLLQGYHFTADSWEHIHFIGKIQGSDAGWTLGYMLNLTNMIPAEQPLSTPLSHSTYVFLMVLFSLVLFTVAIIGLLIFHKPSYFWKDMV
Protocol: (§1) Mutants were transfected in Hek-293T cells, as shown in the table 1, using numbering of SEQ ID NO: 2. […] Mutant 19 includes substitutions at residues R138, M139 and E142.
(§2) Mutants were transfected in Hek-293T cells, as shown in the table 1, using numbering of SEQ ID NO: 2. Dose-ranges of test antibodies (10-2.5-0.625-0.1563-0.0391-0.0098-0.0024-0.0006 μg/ml) are tested on the 20 generated mutants by flow cytometry.

[3] = molecular target: T3, CD39 mutant 15 (human, UniProt P49961 1-510); assay: flow cytometry, Hek-293T cells transfected with CD39 mutant 15 (panel M15), table under the panel; unstained (US) 8,98; antibody concentration not shown
T3 construct: Expressed on Hek-293T cells; also called M15
T3 chain: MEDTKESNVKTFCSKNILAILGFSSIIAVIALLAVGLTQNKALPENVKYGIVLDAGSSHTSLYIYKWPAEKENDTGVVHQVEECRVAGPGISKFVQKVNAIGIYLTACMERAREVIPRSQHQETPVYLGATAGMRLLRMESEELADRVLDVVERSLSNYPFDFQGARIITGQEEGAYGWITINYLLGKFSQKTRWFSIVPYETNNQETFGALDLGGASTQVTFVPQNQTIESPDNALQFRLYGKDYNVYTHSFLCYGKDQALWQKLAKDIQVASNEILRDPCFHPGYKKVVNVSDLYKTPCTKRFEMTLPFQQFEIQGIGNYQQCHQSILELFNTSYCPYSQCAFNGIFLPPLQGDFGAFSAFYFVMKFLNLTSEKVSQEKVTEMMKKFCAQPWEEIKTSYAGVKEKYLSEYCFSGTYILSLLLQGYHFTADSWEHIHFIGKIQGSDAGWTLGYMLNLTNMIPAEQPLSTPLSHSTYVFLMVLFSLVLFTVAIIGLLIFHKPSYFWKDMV
Protocol: as §1, §2

B1: antibody I-394 (antibody, human IgG1, kappa, V domains shown)
VH: EVQLQQSGPELVKPGASVKMSCKASGYTFTDYNMHWVKQSHGRTLEWIGYIVPLNGGSTFNQKFKGRATLTVNTSSRTAYMELRSLTSEDSAAYYCARGGTRFAYWGQGTLVTVSA
VL: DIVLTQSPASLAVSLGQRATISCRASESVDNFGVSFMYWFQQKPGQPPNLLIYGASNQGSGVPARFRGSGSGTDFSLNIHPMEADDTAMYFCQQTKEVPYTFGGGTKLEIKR
binding result [1]: no binding (tested: about 50 µg/ml)
binding result [2]: no binding
Median : Comp-Alexa Fluor 647-A [3]: 6360
